Legend:
HLA-B*15:01 [1] = experiment: IEDB peptide-MHC binding, purified MHC/competitive/fluorescence; filed as Kd, often an IC50 or EC50 that approximates it; ≥ and ≤ were set here for values at or beyond the usual limits of such assays
HLA-B*45:06 = experiment: as above
HLA-B*15:42 = experiment: as above
HLA-B*83:01 = experiment: as above
HLA-B*46:01 = experiment: IEDB peptide-MHC binding, purified MHC/direct/fluorescence; filed as Kd, often an IC50 or EC50 that approximates it; ≥ and ≤ were set here for values at or beyond the usual limits of such assays; conditions: source organism: Mycobacterium tuberculosis
HLA-B*58:01 = experiment: as above; conditions: source organism: Mycobacterium tuberculosis
HLA-A*03:01 = experiment: as above; conditions: source organism: Mycobacterium tuberculosis
HLA-A*02:01 = experiment: as above
HLA-B*27:05 = experiment: as above; conditions: source organism: Mycobacterium tuberculosis
HLA-B*38:01 = experiment: as above
HLA-A*01:01 = experiment: as above; conditions: source organism: Mycobacterium tuberculosis
HLA-B*57:01 = experiment: as above; conditions: source organism: Mycobacterium tuberculosis
HLA-B*15:17 = experiment: as above; conditions: source organism: Mycobacterium tuberculosis
HLA-B*40:01 = experiment: as above; conditions: source organism: Mycobacterium tuberculosis
HLA-B*08:02 = experiment: as above
HLA-A*69:01 = experiment: as above; conditions: source organism: Mycobacterium tuberculosis
HLA-B*51:01 = experiment: as above; conditions: source organism: Mycobacterium tuberculosis
HLA-B*18:01 = experiment: as above; conditions: source organism: Mycobacterium tuberculosis
HLA-B*48:01 = experiment: as above; conditions: source organism: Mycobacterium tuberculosis
HLA-A*31:01 = experiment: as above; conditions: source organism: Mycobacterium tuberculosis
HLA-A*11:01 = experiment: as above; conditions: source organism: Mycobacterium tuberculosis
HLA-B*08:01 = experiment: as above
HLA-A*32:15 = experiment: IEDB peptide-MHC binding, purified MHC/competitive/fluorescence; filed as Kd, often an IC50 or EC50 that approximates it; ≥ and ≤ were set here for values at or beyond the usual limits of such assays
HLA-C*06:02 = experiment: IEDB peptide-MHC binding, purified MHC/direct/fluorescence; filed as Kd, often an IC50 or EC50 that approximates it; ≥ and ≤ were set here for values at or beyond the usual limits of such assays; conditions: source organism: Campylobacter jejuni
HLA-C*14:02 = experiment: as above; conditions: source organism: Campylobacter jejuni
HLA-A*26:01 = experiment: as above
HLA-C*15:02 = experiment: as above; conditions: source organism: Campylobacter jejuni
HLA-B*39:01 = experiment: IEDB peptide-MHC binding, purified MHC/competitive/fluorescence; filed as Kd, often an IC50 or EC50 that approximates it; ≥ and ≤ were set here for values at or beyond the usual limits of such assays; conditions: source organism: Mycobacterium tuberculosis C
HLA-B*15:09 = experiment: as above; conditions: source organism: Mycobacterium tuberculosis C
HLA-A*30:01 = experiment: IEDB peptide-MHC binding, purified MHC/direct/fluorescence; filed as Kd, often an IC50 or EC50 that approximates it; ≥ and ≤ were set here for values at or beyond the usual limits of such assays; conditions: source organism: Mycobacterium tuberculosis str. Haarlem
HLA-A*32:07 = experiment: IEDB peptide-MHC binding, purified MHC/competitive/fluorescence; filed as Kd, often an IC50 or EC50 that approximates it; ≥ and ≤ were set here for values at or beyond the usual limits of such assays; conditions: source organism: Mammarenavirus juninense
HLA-B*27:20 = experiment: as above; conditions: source organism: Mammarenavirus juninense
HLA-C*03:03 = experiment: IEDB peptide-MHC binding, purified MHC/direct/fluorescence; filed as Kd, often an IC50 or EC50 that approximates it; ≥ and ≤ were set here for values at or beyond the usual limits of such assays; conditions: source organism: Mammarenavirus juninense
HLA-B*15:01 [2] = experiment: as above; conditions: source organism: Mycobacterium tuberculosis
[3] = source organism: Mycobacterium tuberculosis variant bovis BCG str. Pasteur 1173P2
[4] = source organism: Mycobacterium tuberculosis
[5] = source organism: Mycobacterium tuberculosis str. Haarlem
[6] = source organism: Campylobacter jejuni
[7] = source organism: Mammarenavirus juninense
[8] = source organism: Mycobacterium tuberculosis F11

Sequence | Kd (HLA-B*46:01) [µM] | Kd (HLA-B*58:01) [µM] | Kd (HLA-A*03:01) [µM] | Kd (HLA-A*02:01; [4]) [µM] | Kd (HLA-B*27:05) [µM] | Kd (HLA-B*38:01; [5]) [µM] | Kd (HLA-A*01:01) [µM] | Kd (HLA-B*57:01) [µM] | Kd (HLA-B*15:17) [µM] | Kd (HLA-B*40:01) [µM] | Kd (HLA-B*08:02; [5]) [µM] | Kd (HLA-A*69:01) [µM] | Kd (HLA-B*51:01) [µM] | Kd (HLA-B*18:01) [µM] | Kd (HLA-B*48:01) [µM] | Kd (HLA-A*31:01) [µM] | Kd (HLA-A*11:01) [µM] | Kd (HLA-B*08:01; [5]) [µM] | further results
RPRVAQLTF | ≥ 20 | ≥ 20 | ≥ 20 | ≥ 20 | ≥ 20 | ≥ 20 | 4.16 | 0.864 | 0.169 | ≥ 20 | 3.86 | ≥ 20 | ≥ 20 | 0.104 | ≥ 20 | ≥ 20 | ≥ 20 | 0.267 | Kd (HLA-B*15:01 [1]; [3]): ≥ 20 µM; Kd (HLA-B*45:06; [3]): ≥ 5 µM; Kd (HLA-B*15:42; [3]): ≥ 5 µM; Kd (HLA-B*83:01; [3]): 2.01 µM
YTKKYLLSF | – | – | – | – | – | – | – | – | – | – | – | – | – | – | – | – | – | – | Kd (HLA-B*45:06; [6]): ≥ 5 µM; Kd (HLA-B*15:42; [6]): ≥ 5 µM; Kd (HLA-A*32:15; [6]): 0.235 µM; Kd (HLA-B*83:01; [6]): ≥ 5 µM; Kd (HLA-C*06:02): ≥ 20 µM; Kd (HLA-C*14:02): 2.05 µM; Kd (HLA-A*26:01; source organism: Campylobacter jejuni subsp. jejuni 81116): 0.002 µM; Kd (HLA-C*15:02): 5 µM
RPKPDYSAM | ≥ 20 | ≥ 20 | ≥ 20 | ≥ 20 | ≥ 20 | ≥ 20 | ≥ 20 | ≥ 20 | – | ≥ 20 | ≥ 20 | ≥ 20 | ≥ 20 | ≥ 20 | ≥ 20 | ≥ 20 | ≥ 20 | 0.08 | Kd (HLA-B*15:01 [1]; source organism: Mycobacterium tuberculosis C): ≥ 20 µM; Kd (HLA-B*39:01): 1.96 µM; Kd (HLA-B*15:09): ≥ 20 µM; Kd (HLA-A*26:01; [5]): ≥ 20 µM; Kd (HLA-A*30:01): 0.123 µM
KLMDVVYSI | – | – | – | – | – | – | – | – | – | – | – | – | – | – | – | – | – | – | Kd (HLA-B*45:06; [7]): ≥ 5 µM; Kd (HLA-B*15:42; [7]): ≥ 5 µM; Kd (HLA-A*32:15; [7]): 0.0556 µM; Kd (HLA-A*32:07): 0.0021 µM; Kd (HLA-B*27:20): 0.0179 µM; Kd (HLA-A*02:01; [7]): 0.0009 µM; Kd (HLA-C*03:03): ≥ 20 µM
KPKLARGEL | ≥ 20 | ≥ 20 | ≥ 20 | ≥ 20 | ≥ 20 | – | ≥ 20 | ≥ 20 | ≥ 20 | 1.16 | – | ≥ 20 | ≥ 20 | 2.57 | ≥ 20 | ≥ 20 | ≥ 20 | – | Kd (HLA-B*15:01 [2]): ≥ 20 µM; Kd (HLA-B*38:01; [8]): ≥ 20 µM; Kd (HLA-A*26:01; [8]): ≥ 20 µM; Kd (HLA-B*08:02; [8]): ≥ 5 µM; Kd (HLA-B*08:01; [8]): 0.19 µM
